According to article doi:10.1101/2025.04.15.648992:
One block for each substance: values may come before it.

How the values were obtained:
Experiment in all cases: SEC
[1] = biological target: CdaA_(88-273) D172A (Leptospira interrogans str. Fiocruz L1-130)
[2] = biological target: CdaA_(88-273) R203A (Leptospira interrogans str. Fiocruz L1-130)
[3] = biological target: CdaA_(88-273) S222A (Leptospira interrogans str. Fiocruz L1-130)

stoichiometry N [1]: 2
Substance: CdaA_(88-273) D172A (domain or fragment)

stoichiometry N [2]: 2
Substance: CdaA_(88-273) R203A (domain or fragment)

stoichiometry N [3]: 2
Substance: CdaA_(88-273) S222A (domain or fragment)
